Data as given in article PMC2917093 (Biochemistry, 2009).
Values joined by “and” are separate entries in the source; they are usually repeats but may differ in a detail not shown here. Identical values can stand only once.

Target: T1, human ribonucleotide reductase small subunit β′ (p53R2) (human, UniProt Q7LG56 1-351)
T1 sequence (looked up): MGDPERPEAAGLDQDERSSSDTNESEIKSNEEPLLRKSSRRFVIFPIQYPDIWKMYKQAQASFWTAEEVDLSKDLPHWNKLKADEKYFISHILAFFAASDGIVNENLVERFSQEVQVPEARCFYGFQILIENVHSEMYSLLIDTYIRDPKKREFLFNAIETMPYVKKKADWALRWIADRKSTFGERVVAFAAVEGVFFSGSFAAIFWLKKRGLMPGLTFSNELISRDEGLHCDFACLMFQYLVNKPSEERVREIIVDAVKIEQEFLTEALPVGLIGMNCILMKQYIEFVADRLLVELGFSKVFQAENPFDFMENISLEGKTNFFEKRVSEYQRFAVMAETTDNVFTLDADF
Assay: SEC

B1: human ribonucleotide reductase large subunit α (enzyme, UniProt P23921 1-792, looked up)
chain: MHVIKRDGRQERVMFDKITSRIQKLCYGLNMDFVDPAQITMKVIQGLYSGVTTVELDTLAAETAATLTTKHPDYAILAARIAVSNLHKETKKVFSDVMEDLYNYINPHNGKHSPMVAKSTLDIVLANKDRLNSAIIYDRDFSYNYFGFKTLERSYLLKINGKVAERPQHMLMRVSVGIHKEDIDAAIETYNLLSERWFTHASPTLFNAGTNRPQLSSCFLLSMKDDSIEGIYDTLKQCALISKSAGGIGVAVSCIRATGSYIAGTNGNSNGLVPMLRVYNNTARYVDQGGNKRPGAFAIYLEPWHLDIFEFLDLKKNTGKEEQRARDLFFALWIPDLFMKRVETNQDWSLMCPNECPGLDEVWGEEFEKLYASYEKQGRVRKVVKAQQLWYAIIESQTETGTPYMLYKDSCNRKSNQQNLGTIKCSNLCTEIVEYTSKDEVAVCNLASLALNMYVTSEHTYDFKKLAEVTKVVVRNLNKIIDINYYPVPEACLSNKRHRPIGIGVQGLADAFILMRYPFESAEAQLLNKQIFETIYYGALEASCDLAKEQGPYETYEGSPVSKGILQYDMWNVTPTDLWDWKVLKEKIAKYGIRNSLLIAPMPTASTAQILGNNESIEPYTSNIYTRRVLSGEFQIVNPHLLKDLTERGLWHEEMKNQIIACNGSIQSIPEIPDDLKQLYKTVWEISQKTVLKMAAERGAFIDQSQSLNIHIAEPNYGKLTSMHFYGWKQGLKTGMYYLRTRPAANPIQFTLNKEKLKDKEKVSKEEEEKERNTAAMVCSLENRDECLMCGS
stoichiometry N: 1.2 α:β' and 1 α:β' and 1.06 α:β'
